From the Human Domainome abundance scans (Beltran et al. 2025)
± gives the uncertainty stated by the source.

B1: Far upstream element-binding protein 1, residues 98 to 169; numbered along this chain, Q96AE4 (parent)
chain: RSVMTEEYKVPDGMVGFIIGRGGEQISRIQQESGCKIQIAPDSGGLPERSCMLTGTPESVQSAKRLLDQIVE

Variants of: B1
Assay: abundance fitness (aPCA) (normalised: wild type 0, dead -1); higher = more abundant; growth selection in yeast, the domain comes from the species named
Conditions: Homo sapiens
With RSVMTEEYKVPDGMVGFIIGRGMEQISRIQQESGCKIQIAPDSGGLPERSCMLTGTPESVQSAKRLLDQIVE the abundance fitness was -0.037 ± 0.04. In the case of RSVMTEEYKVPDGMVGFIIGRGNEQISRIQQESGCKIQIAPDSGGLPERSCMLTGTPESVQSAKRLLDQIVE, the abundance fitness is reported as -0.055 ± 0.059. RSVMTEEYKVPDGMVGFIIGRGPEQISRIQQESGCKIQIAPDSGGLPERSCMLTGTPESVQSAKRLLDQIVE gave an abundance fitness of -0.181 ± 0.033. RSVMTEEYKVPDGMVGFIIGRGQEQISRIQQESGCKIQIAPDSGGLPERSCMLTGTPESVQSAKRLLDQIVE gave an abundance fitness of -0.062 ± 0.034. RSVMTEEYKVPDGMVGFIIGRGREQISRIQQESGCKIQIAPDSGGLPERSCMLTGTPESVQSAKRLLDQIVE showed an abundance fitness of -0.044 ± 0.024. RSVMTEEYKVPDGMVGFIIGRGSEQISRIQQESGCKIQIAPDSGGLPERSCMLTGTPESVQSAKRLLDQIVE gave an abundance fitness of -0.061 ± 0.029. With RSVMTEEYKVPDGMVGFIIGRGTEQISRIQQESGCKIQIAPDSGGLPERSCMLTGTPESVQSAKRLLDQIVE the abundance fitness was -0.127 ± 0.038. In the case of RSVMTEEYKVPDGMVGFIIGRGVEQISRIQQESGCKIQIAPDSGGLPERSCMLTGTPESVQSAKRLLDQIVE, the abundance fitness is reported as -0.157 ± 0.029. RSVMTEEYKVPDGMVGFIIGRGWEQISRIQQESGCKIQIAPDSGGLPERSCMLTGTPESVQSAKRLLDQIVE gave an abundance fitness of -0.101 ± 0.031. Variant RSVMTEEYKVPDGMVGFIIGRGYEQISRIQQESGCKIQIAPDSGGLPERSCMLTGTPESVQSAKRLLDQIVE has an abundance fitness of -0.072 ± 0.052. In the case of RSVMTEEYKVPDGMVGFIIGRGGAQISRIQQESGCKIQIAPDSGGLPERSCMLTGTPESVQSAKRLLDQIVE, the abundance fitness is reported as -0.032 ± 0.03. In the case of RSVMTEEYKVPDGMVGFIIGRGGCQISRIQQESGCKIQIAPDSGGLPERSCMLTGTPESVQSAKRLLDQIVE, the abundance fitness is reported as -0.082 ± 0.042. For RSVMTEEYKVPDGMVGFIIGRGGDQISRIQQESGCKIQIAPDSGGLPERSCMLTGTPESVQSAKRLLDQIVE, the abundance fitness was -0.064 ± 0.046. For RSVMTEEYKVPDGMVGFIIGRGGFQISRIQQESGCKIQIAPDSGGLPERSCMLTGTPESVQSAKRLLDQIVE, the abundance fitness was -0.013 ± 0.061. RSVMTEEYKVPDGMVGFIIGRGGGQISRIQQESGCKIQIAPDSGGLPERSCMLTGTPESVQSAKRLLDQIVE gave an abundance fitness of -0.057 ± 0.025. For RSVMTEEYKVPDGMVGFIIGRGGHQISRIQQESGCKIQIAPDSGGLPERSCMLTGTPESVQSAKRLLDQIVE, the abundance fitness was 0.026 ± 0.058. Work on RSVMTEEYKVPDGMVGFIIGRGGIQISRIQQESGCKIQIAPDSGGLPERSCMLTGTPESVQSAKRLLDQIVE yielded an abundance fitness of -0.035 ± 0.049. Work on RSVMTEEYKVPDGMVGFIIGRGGKQISRIQQESGCKIQIAPDSGGLPERSCMLTGTPESVQSAKRLLDQIVE yielded an abundance fitness of -0.035 ± 0.041. With RSVMTEEYKVPDGMVGFIIGRGGLQISRIQQESGCKIQIAPDSGGLPERSCMLTGTPESVQSAKRLLDQIVE the abundance fitness was -0.108 ± 0.03. In the case of RSVMTEEYKVPDGMVGFIIGRGGMQISRIQQESGCKIQIAPDSGGLPERSCMLTGTPESVQSAKRLLDQIVE, the abundance fitness is reported as -0.093 ± 0.041. RSVMTEEYKVPDGMVGFIIGRGGNQISRIQQESGCKIQIAPDSGGLPERSCMLTGTPESVQSAKRLLDQIVE showed an abundance fitness of -0.163 ± 0.074. RSVMTEEYKVPDGMVGFIIGRGGQQISRIQQESGCKIQIAPDSGGLPERSCMLTGTPESVQSAKRLLDQIVE showed an abundance fitness of -0.084 ± 0.039. RSVMTEEYKVPDGMVGFIIGRGGSQISRIQQESGCKIQIAPDSGGLPERSCMLTGTPESVQSAKRLLDQIVE gave an abundance fitness of -0.026 ± 0.029. RSVMTEEYKVPDGMVGFIIGRGGTQISRIQQESGCKIQIAPDSGGLPERSCMLTGTPESVQSAKRLLDQIVE gave an abundance fitness of -0.035 ± 0.037. Work on RSVMTEEYKVPDGMVGFIIGRGGVQISRIQQESGCKIQIAPDSGGLPERSCMLTGTPESVQSAKRLLDQIVE yielded an abundance fitness of -0.072 ± 0.028. Variant RSVMTEEYKVPDGMVGFIIGRGGWQISRIQQESGCKIQIAPDSGGLPERSCMLTGTPESVQSAKRLLDQIVE has an abundance fitness of 0.171 ± 0.032. Variant RSVMTEEYKVPDGMVGFIIGRGGEAISRIQQESGCKIQIAPDSGGLPERSCMLTGTPESVQSAKRLLDQIVE has an abundance fitness of -0.088 ± 0.027. With RSVMTEEYKVPDGMVGFIIGRGGECISRIQQESGCKIQIAPDSGGLPERSCMLTGTPESVQSAKRLLDQIVE the abundance fitness was -0.054 ± 0.034. RSVMTEEYKVPDGMVGFIIGRGGEDISRIQQESGCKIQIAPDSGGLPERSCMLTGTPESVQSAKRLLDQIVE gave an abundance fitness of -0.071 ± 0.04. RSVMTEEYKVPDGMVGFIIGRGGEEISRIQQESGCKIQIAPDSGGLPERSCMLTGTPESVQSAKRLLDQIVE showed an abundance fitness of 0.036 ± 0.03. RSVMTEEYKVPDGMVGFIIGRGGEFISRIQQESGCKIQIAPDSGGLPERSCMLTGTPESVQSAKRLLDQIVE showed an abundance fitness of -0.242 ± 0.054. For RSVMTEEYKVPDGMVGFIIGRGGEGISRIQQESGCKIQIAPDSGGLPERSCMLTGTPESVQSAKRLLDQIVE, the abundance fitness was -0.035 ± 0.022. RSVMTEEYKVPDGMVGFIIGRGGEHISRIQQESGCKIQIAPDSGGLPERSCMLTGTPESVQSAKRLLDQIVE showed an abundance fitness of -0.021 ± 0.043. In the case of RSVMTEEYKVPDGMVGFIIGRGGEKISRIQQESGCKIQIAPDSGGLPERSCMLTGTPESVQSAKRLLDQIVE, the abundance fitness is reported as -0.013 ± 0.038. Variant RSVMTEEYKVPDGMVGFIIGRGGELISRIQQESGCKIQIAPDSGGLPERSCMLTGTPESVQSAKRLLDQIVE has an abundance fitness of -0.108 ± 0.027. Work on RSVMTEEYKVPDGMVGFIIGRGGEMISRIQQESGCKIQIAPDSGGLPERSCMLTGTPESVQSAKRLLDQIVE yielded an abundance fitness of -0.027 ± 0.038. With RSVMTEEYKVPDGMVGFIIGRGGENISRIQQESGCKIQIAPDSGGLPERSCMLTGTPESVQSAKRLLDQIVE the abundance fitness was -0.107 ± 0.048. RSVMTEEYKVPDGMVGFIIGRGGERISRIQQESGCKIQIAPDSGGLPERSCMLTGTPESVQSAKRLLDQIVE showed an abundance fitness of -0.016 ± 0.022.
